These results are taken from article PMC10803263, “General transcription factor from Escherichia coli with a distinct mechanism of action” (Nature Structural & Molecular Biology, 2023).

In one assay the target is T1, σ^70 (purified) (E. coli, UniProt P00579 1-613).
T1 construct: RNA polymerase sigma factor σ70 (RpoD), WT E. coli; also called RpoD
As to the kind of experiment: cryo-EM structure; purified Eσ^70 incubated with ssrA promoter DNA (threefold excess), then CedA (fivefold molar excess over RNAP); complex repurified on Superose 6 Increase in 30 mM HEPES pH 8.0, 100 mM KCl, 5 mM MgCl2, 0.5 mM TCEP; 2.76 Å. Particulars: both partners purified.

Assay [1] concerns the target T2, RNA polymerase β subunit (in purified RNAP) (E. coli, UniProt P0A8V2 1-1342).
T2 construct: RNA polymerase β subunit (RpoB), WT E. coli; Stood in the assay as a subunit of the purified RNAPσ70 holoenzyme; also called β-lobe/βi4
The assay is described as above. Particulars: both partners purified.

T2 sequence (P0A8V2 whole entry): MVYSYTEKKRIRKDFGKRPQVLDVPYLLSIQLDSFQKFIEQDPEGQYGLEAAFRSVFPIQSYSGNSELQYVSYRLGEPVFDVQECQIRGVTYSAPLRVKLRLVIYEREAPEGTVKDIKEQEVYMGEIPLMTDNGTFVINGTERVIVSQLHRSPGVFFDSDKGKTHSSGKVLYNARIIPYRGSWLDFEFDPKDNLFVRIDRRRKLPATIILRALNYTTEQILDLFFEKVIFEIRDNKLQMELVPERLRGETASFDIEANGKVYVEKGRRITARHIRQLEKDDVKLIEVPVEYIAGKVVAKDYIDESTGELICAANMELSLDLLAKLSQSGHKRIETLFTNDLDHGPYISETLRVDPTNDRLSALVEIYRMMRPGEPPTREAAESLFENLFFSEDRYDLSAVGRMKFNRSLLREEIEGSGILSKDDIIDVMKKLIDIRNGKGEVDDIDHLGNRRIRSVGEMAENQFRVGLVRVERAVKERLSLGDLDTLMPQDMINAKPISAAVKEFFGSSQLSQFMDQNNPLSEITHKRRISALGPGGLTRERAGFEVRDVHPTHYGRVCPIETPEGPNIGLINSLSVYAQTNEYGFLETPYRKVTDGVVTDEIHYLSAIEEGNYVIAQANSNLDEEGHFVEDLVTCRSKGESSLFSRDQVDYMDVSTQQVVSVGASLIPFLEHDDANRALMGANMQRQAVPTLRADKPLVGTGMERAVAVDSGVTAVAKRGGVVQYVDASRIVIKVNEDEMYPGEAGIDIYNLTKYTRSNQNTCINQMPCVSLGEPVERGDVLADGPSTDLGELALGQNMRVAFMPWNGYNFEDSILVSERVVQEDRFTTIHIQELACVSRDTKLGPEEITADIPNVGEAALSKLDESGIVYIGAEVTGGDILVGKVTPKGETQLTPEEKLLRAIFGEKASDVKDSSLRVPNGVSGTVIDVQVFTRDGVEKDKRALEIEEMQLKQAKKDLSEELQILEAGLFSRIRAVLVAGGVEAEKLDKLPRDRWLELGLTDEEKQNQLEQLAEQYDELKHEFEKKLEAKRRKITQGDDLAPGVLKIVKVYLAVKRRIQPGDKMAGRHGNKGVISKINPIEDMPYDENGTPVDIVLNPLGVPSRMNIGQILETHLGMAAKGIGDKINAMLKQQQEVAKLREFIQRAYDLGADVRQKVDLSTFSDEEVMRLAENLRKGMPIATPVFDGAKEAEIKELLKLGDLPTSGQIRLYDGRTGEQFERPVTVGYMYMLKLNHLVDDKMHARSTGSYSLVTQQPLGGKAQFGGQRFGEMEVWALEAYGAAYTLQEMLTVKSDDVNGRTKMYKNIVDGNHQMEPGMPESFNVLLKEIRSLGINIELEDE
T1 sequence (P00579 whole entry): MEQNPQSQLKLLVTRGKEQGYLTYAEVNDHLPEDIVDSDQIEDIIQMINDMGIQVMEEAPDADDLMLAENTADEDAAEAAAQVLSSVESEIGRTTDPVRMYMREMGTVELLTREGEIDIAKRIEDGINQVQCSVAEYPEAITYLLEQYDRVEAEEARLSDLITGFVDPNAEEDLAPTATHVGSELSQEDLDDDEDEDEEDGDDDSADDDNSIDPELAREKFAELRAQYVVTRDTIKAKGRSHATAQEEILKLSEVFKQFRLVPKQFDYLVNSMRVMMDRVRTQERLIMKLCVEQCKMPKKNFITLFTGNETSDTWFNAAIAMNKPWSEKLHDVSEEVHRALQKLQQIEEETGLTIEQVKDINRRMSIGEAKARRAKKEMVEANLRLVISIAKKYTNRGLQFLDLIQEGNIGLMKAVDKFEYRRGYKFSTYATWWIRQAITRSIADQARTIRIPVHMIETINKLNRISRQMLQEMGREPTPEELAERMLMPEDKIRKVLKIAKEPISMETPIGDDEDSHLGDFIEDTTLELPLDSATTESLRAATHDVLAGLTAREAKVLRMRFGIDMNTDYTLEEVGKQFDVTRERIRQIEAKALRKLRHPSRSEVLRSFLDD

B1: CedA (purified recombinant) (natural protein, E. coli, UniProt P0AE60 1-80, looked up)
chain: MKKPLRQQNRQIISYVPRTEPAPPEHAIKMDSFRDVWMLRGKYVAFVLMGESFLRSPAFTVPESAQRWANQIRQEGEVTE
notes: CedA, E. coli; the open reading frame of cedA amplified from the MG1655 chromosome; also called WT CedA; source: E. coli BL21(DE3), pSumoH10-cedA, purified (HisTrap, Ulp1 tag removal, HiTrap SP, Superdex 75); not shown: 10× His, N-terminal, cleaved; SUMO, N-terminal, cleaved
As for B1, the binding result (with σ^70 (purified); in assay [1]) was “binds” each time.
